The target in test [1] is human TMPRSS2 (NP_005647.3 with a V160M) expressed on MDCK/Tet-on/hTMPRSS2 cells (human, UniProt O15393 1-492). The experiment in a line: flow cytometry on MDCK/Tet-on/hTMPRSS2 cells, doxycycline-induced. (In general: In flow cytometry, cells or beads pass a laser one at a time.)
Test [2] deals with cynomolgous monkey TMPRSS2 (XP_015302311.1 with S129L, N251S, I415V, R431Q, D492G) expressed on … (cynomolgous monkey; SEQ ID NO …). The experiment in a line: flow cytometry on MDCK/Tet-on/mfTMPRSS2 cells, doxycycline-induced.
Chain of cynomolgous monkey TMPRSS2 (XP_015302311.1 with S129L, N251S, I415V, R431Q, D492G) expressed on … (cynomolgous monkey; SEQ ID NO …) (chain, as listed by the source S129L N251S I415V R431Q D492G S129L N251S I415V R431Q D492G limits assumed): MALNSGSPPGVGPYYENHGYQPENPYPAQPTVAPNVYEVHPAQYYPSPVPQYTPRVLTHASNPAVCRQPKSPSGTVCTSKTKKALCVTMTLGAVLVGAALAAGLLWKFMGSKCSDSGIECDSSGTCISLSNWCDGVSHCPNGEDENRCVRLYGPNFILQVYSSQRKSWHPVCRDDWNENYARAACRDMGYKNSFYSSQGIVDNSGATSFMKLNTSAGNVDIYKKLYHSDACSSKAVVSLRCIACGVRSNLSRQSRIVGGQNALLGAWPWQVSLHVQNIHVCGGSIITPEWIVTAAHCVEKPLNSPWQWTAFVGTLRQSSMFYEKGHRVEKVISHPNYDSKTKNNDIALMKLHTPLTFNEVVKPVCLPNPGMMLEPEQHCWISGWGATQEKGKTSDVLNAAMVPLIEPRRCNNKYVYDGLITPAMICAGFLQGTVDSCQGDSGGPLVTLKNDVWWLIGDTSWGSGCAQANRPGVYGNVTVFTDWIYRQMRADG

Chain of human TMPRSS2 (NP_005647.3 with a V160M) expressed on MDCK/Tet-on/hTMPRSS2 cells (O15393 whole entry V160M): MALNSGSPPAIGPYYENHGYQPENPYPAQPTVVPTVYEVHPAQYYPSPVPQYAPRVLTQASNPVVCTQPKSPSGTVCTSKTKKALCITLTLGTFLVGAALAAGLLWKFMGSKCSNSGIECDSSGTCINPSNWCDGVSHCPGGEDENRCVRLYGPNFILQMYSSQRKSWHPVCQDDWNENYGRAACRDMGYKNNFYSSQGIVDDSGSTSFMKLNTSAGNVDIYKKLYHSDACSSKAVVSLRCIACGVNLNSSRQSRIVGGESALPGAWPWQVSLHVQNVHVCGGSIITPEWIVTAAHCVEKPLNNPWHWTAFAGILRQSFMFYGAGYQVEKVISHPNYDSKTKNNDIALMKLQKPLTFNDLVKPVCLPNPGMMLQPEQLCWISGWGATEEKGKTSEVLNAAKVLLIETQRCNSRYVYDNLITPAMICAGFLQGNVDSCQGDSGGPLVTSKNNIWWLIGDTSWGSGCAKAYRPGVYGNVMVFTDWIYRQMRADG

B1: H1H7017N (antibody, human IgG1, kappa, V domains shown)
VH: QVQLVESGGGVVQPGRSLRLSCAASGFTFSSYGMHWVRQSPGKGLEWVAVIWNDGSYVYYADSVKGRFTISRDISKNTLFLQMNSLRAEDTAVYYCAREGEWVLYYFDYWGQGTLVTVSS
VL: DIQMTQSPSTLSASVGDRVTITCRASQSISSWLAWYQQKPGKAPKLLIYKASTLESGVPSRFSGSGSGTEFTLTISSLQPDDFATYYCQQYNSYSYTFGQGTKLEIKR
notes: also called anti-TMPRSS2 mAb; anti-hTMPRSS2 antibody
As usually defined, the EC50 is the concentration that produces a half-maximal response. As to B1, the EC50 in test [1] amounted to 0.46 nM; in test [2], 1.06 nM.

The record behind these values is patent US20190300625A1 (Regeneron, published 2019).
